Measurements taken from publication PMC3745222.

Biological target: full-length GST-Smad3 (UniProt P84022)
Assay: pull-down

UniProt P84022, sequence (P84022 whole entry): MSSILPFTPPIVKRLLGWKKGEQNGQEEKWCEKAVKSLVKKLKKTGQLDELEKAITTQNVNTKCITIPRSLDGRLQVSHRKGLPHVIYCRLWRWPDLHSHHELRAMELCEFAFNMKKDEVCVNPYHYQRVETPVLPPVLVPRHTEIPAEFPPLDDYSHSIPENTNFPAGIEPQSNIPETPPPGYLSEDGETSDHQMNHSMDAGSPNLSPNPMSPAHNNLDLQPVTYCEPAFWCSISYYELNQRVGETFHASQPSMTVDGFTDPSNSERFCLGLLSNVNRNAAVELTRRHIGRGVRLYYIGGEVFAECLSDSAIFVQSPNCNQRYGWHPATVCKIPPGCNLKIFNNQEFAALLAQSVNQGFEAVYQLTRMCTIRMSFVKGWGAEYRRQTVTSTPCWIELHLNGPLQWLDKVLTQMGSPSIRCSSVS

“intracellular Notch1 (ICN1), the active form of Notch1 (domain or fragment)” was tested, and the fold increase of binding in β2SP shRNA cells against control cells was 2 fold.
